Experiment: soluble fraction after stress (log2 fold change); higher = more stays soluble; pooled small domains, quantitative proteomics
Details: stress: pH 4
Procedure, shortened: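 Aggregation propensity is read out as the fold change in how much of each domain remains soluble after acid stress. The custom small-domain libraries were pooled, held at pH 4 and analysed with high-throughput quantitative proteomics. On the log2 scale used, higher values mean more of the domain stayed soluble.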

Sequence	soluble fraction (log2)
HMAHKRVDGTIVTPLTADTIVLRTGTHGEQPFEIRDTTRHKLESLQKGDMVILLIDTDNKVIDVAIPP	-0.263
HMAHYYVRNGYYYYQRRIPLDLRKFYSGANIKASLKTKDPAIAALFVAKFDRQYDAEFAQRRLNPD	-0.277
HMAIELIDLIKNPETAPFSKLKYLKWMPEAEVTGFFNNLFQLNVTARETGDWSTVDKFLEDEGDRIAAQVA	-0.215
HMAIEMSTITKRVTSTGEIRYRALLQIRREDVNYTESRTFSKKSLAEAWLKKREVELEANPELLHQ	≥ 0.43
HMAIGERIRFLRTLRRMTQKELGLAAGFPEKNASIRMAQYENGTRTPKAELTAVLAEILKVSPQALTV	0.173
HMAIKNKNEQLEAIIKFADLRGEFKTADIEELLSIKSSRARLLISELVKIGKLESIGSNRNRRYHIK	-0.302
HMAIKTGAVTGHGVKVRKGPSTNEKAIHDVLYGSRLQILEEKNGFLKAKFEDGTTGWISKQFVTTTDKNLL	-0.0244
HMAIKWTPEIEDEVSNKLKEKWSPEQISAWLKKNKSIMISHQRIYQFIVEDKMSGGNLYRNLRQ	0.172
HMAIPTTDSDKATDAQIKQIKLLGDIHPNLKLDAWLERNHVTWETLTREQAGNMMKAIKNKYGD	0.132
HMAISEAERARLQTKIKERNKMARWINTNLNPTSKIRNINPAETVRKLMTQDDADSLERSLDAFMEA	0.0822
HMAIVNVEVPSLVGKTEQEARNLLTEAGLKVNVVNDEDESKNDGVVLRQSKDAGTEVQEGTTITITVNKVS	-0.467
HMAKDDFMSFVKAVWPEFIEGAHHRVIAQKFNDLATGKITRLIVNMPPRHTKSEFASYLLPAW	-0.144
HMAKDEYGLTSNQRAFADEYIRNKGNATQAYLFAYPHIKKENTAAVNASRLLRNAKVSKYIADRTKEIL	-0.146
HMAKIDSRKALIDQLTTTFTRAQLEELITKNELSTDARFFLSQWNAKGWIRKTAKNVYEKLR	0.0107
HMAKLTPDQQELRAIRIELQMSQPDFADAININVPRLSSYEYGRTAGVPTSIMEAARELKRSMSR	-0.324
HMAKRDEIEAELPRFVATITQELAASRDVLSMIEHYKQNSGPVFSAELDVLTADMRSGSYEAALTRFEARF	-0.0581
HMAKRKYKSFKDVAEFAQKLGIKSSTEWWAYVRGHEIPSDIPKDPSTYYKKEWTTWGDFLGTGYVSSA	≥ 0.43
HMAKRTVPSVAEAIDNFRRQHRRMPSYAEMLPLLGVRSKSVVHFWINKLLENGLLEKDDKGYLTPGS	-0.241
HMAKSPYDVLGLKEDAPFDEVKKRYRELVKKYHPDILMGRGESEEMIEKSTRKLQEINEAYETIKQRA	-0.0402
HMAKVDIPHEMVDQRIDEIVEEIKMNLESQNMSLDDYLKRMNQTEAQLRANYEATAAEQVRQGLV	-0.982
HMALDSQEVGYNIEARGARPVVAQLGKAGQFSAVENSIRLGDDNWIALAPKLAGGGNAGFTAGIKSALS	-0.293
HMALIGSNLRHLRNERKLSQQELADLIRVGRTTIANIEANLANPGHKTLLEIVKVFDITIDELLHTDLTK	-0.684
HMALKPKITIEELIRILNESKDLSDSETAKILNKDYTTAKYGKEFTSINVQGARYALDIATNTS	-0.323

Sequence	soluble fraction (log2)
HMALLSNEDIMFNLEFNRDLAVASNDGVSRDEFLRNKYGISEEEYNMLRARYGDGLNAARIKEYVGQRD	-0.36
HMALLSNTVDELHAGMRLDSYLFESGLYPSRSFAVKQIEAGKVFLNGDAVTKKTLVSNGDFIVYELEE	-0.506
HMALMLGGLIVYLNTTAPRDDIDLIELSKDTKAMAAFGNKLASPDYNGKQFALDWHELSRDEIMSKYFS	-1.82
HMALPDWLDPEAWAAWKRHRKAIRKPLTEDAVALSIRELAKLRDEGYGPTSVIENAILKGWQGLYPPK	0.143
HMALPGESVYVSILQSGSNRDQGVGYLDDGTMVVVDGAIKDIGKSIEVVINKSHQTVAGKMLFAKKVA	-0.144
HMALPQPDDDRQDTKKRILDMAEDLLLTRGFNAFSYQHISSELGMKNAAIHYHYPKKNDLGVAVIQRYRRR	-0.178
HMALQDKYAELLTAANTMGVTNLAVAEKDGTLHVSGTAKSTADYDSLWALYDKIDPNMASGDLMMNI	-0.0324
HMALQDKYKELTDAATAAGVTDLQVREQDNVLYIDGTAPSGAVKDQLWAIYDKIDPNFVSGDLVLNVNVD	-0.49
HMALTLDEARTQGRVGETFYGYLVALKTDAETEKLVNDINAERKASYQQLAKQNNVSVDDIAKLAGQKLV	-0.113
HMALWFDEWKKYQDTIASADLLPDKAERDALIAQAEDRFNYWMDIYPRSASLNHSFDDLYEEHRRKIE	-1.33
HMAMDYEGFKKSVYALTSIDLNAYKERQMKRRIDTLIAKNKYNGYEDYTAAIKKDKALFEEFVNYLTIN	-0.521
HMAMMTKQRLIQLIHIARNDLQMDEDTYRQMLQGLTGKASTKGMDTPQLNRVLESMKKKGFRIK	≥ 0.43
HMAMNLQETVLMQLRDLILRGTFEPGQRLSEQPLAERLKASRTPVRSALVTLEQEGLIEASETGKYLVRQ	-0.845
HMAMTNEEREALISEIKQTVNNSIDLKKDISDTEIKEAITQAVFERSEKSYLSIAEKQDIITAVFNSMR	-0.159
HMANADVVLVDLDKEYTVDAAKFHSVVKHSPFNGFAVKGAPVLTIVRGTVVAENGEVVGQPGHSKMVRP	-0.0368
HMANEGWDIYKLDIRNHKQPNGEYYSEKEIQSTINNTFGKGSFNVDWKKYEKDKEYREKTNYYYFQAKYFV	-0.24
HMANHIAAIHVLKSKLQMSDSDYRVLITGLTQKASTKDMSDIERQRVRDHMQGLAERMGVVK	0.0887
HMANIAVTIPTGSSGDRIADILLQAGLIKDKQDFNQAVIAAGAEGKLRAGYFVIPSNATPAEIISILT	-0.253
HMANILKHKNKDGVITSYTIRVYHGYDEAGKRLRPYTMNYKPAPNMTARQIEKELNRQAVQFEEQIKNGYA	-0.182
HMANKLTSTNLAKQHKMGLSEMYAELMNSGYLIEKDGKYELTPLGISIGGESKPNRYKKGEFYFLWPSDIS	0.22
HMANLLNLREIPVANIRPELTMFLIPGENITQAFQTIRDQVVFTNKRLIVANVQGLTGKKVSYTSYPY	-0.251
HMANPFQELTERELDVLRQVAAGKNNREIAEALFIGEKTVKTHISNILSKLHLADRTQAAVYAWQQGMM	-1.14
HMANTVVMPNLLGKTMTEAKIELKELGIDITLKGSESSSKYSAGQIMEQNIAEGTKVEVGSSVEVTIAGS	0.334

Sequence	soluble fraction (log2)
HMAPAPDEAFAEFVRSSAPSLTRTAWLLTGDRGHAQDLVQNAYAKTLQAWGRLDAEGALAYTRRAVIT	-0.0327
HMAPDGIEDKEGWLKVLPMITNLSIQMQNLQARGMDYEHIRNLLHETLLRYDDRIDSNLFIPNV	-0.198
HMAPDNDELEKAKKIVNAFIEAKAKGLGVVSLGTKMIDAPVVKRAQKIIDQTIVMGKLSLNWQDEFFN	-0.32
HMAPEVTVHDGSIVVRGHVGGVTVYDESGRQIASVQSRGAVAIPVPAGHTYLYIVKPEGKPAIKVRAAH	-0.0212
HMAPKSALKIIEQISNNPRATMTDLANLTGYSRRWVAQTIKRLQEENIIKRIGSDKSGYWEIIG	0.417
HMAPLATLEADGNGAVKLPNLAGHAIREVAAALGGANLALIPIGSGTSWKQNPAPGTILHKGDTVTVYF	-0.353
HMAPLEPLTDRETEMLVRLANGASNKVMARESFVSENTIKFHLKNIYAKLGVTSRLQAIAAARNQGLI	-0.0342
HMAPLRTQYVNVNYANAAEIKTLISGADKEVGSLLSERGSVVVDKRTNTLIIQDTQARLNDIGDLIEQLD	-0.52
HMAPMYGEFENVRLTDAQLDKLNARFPPEQVQREIEALSGYMRSKGKRYADHYATLLNWLRRDFPP	-0.112
HMAPNVEENSKLIGEIGMTLTPLRPSGIATINNRRVDVVSNGDFIDQDERVMVKRVQGARVVVIPV	0.1
HMAPPDFTTFMRNYQDMVYSTAVRLIGNETQAEDIAQEVFIKAHAHFENLRTSPSAGGWLKTVATNLSIN	-0.949
HMAPQAETLLRQVMALPSKDRAVLYLHYYEGFSTREVGDMLHISQSAVTTRLLRARKKLKEIL	-0.754
HMAPRLTERERQVLQLIAEGLTSMQIGDRLHIAASTVDVHRRNLMRKLDLHNVADLTRYAITQGISP	0.00348
HMAPRQDIAYYTVKPGDTVLAIAEKFGLQPETLMWSNSIIEQNPDRLSIGDELRILPVDGVLHVVK	-0.666
HMAPRSSAVYFYLSQVALKKNQPRKAEAMARRGLTVSQDANRRRALWQLILRSGQAQNNTRVIREAQQAL	-0.0754
HMAPSLSEYAYEEIKHAIERGVYPPGAKLITQEIADRLGISRTPVVAAVNRLTAEGYADAVPQHGIFVK	0.0288
HMAPVLTRREHEVLHLLTDGLDNRTIARNLFISEATVKFHLHNIMGKFGVHRRAALVSTALRG	-0.182
HMAPVTPEERAQAMEEYKAMVTIEGYTPPKNIIEQNYKRGLWSETMLNMAVTKGAITEAEKLEIMN	0.0947
HMAQIVNLPRKNVNGASYYYYEVQPKETIYSISRKLGVSGAEIQRHNPSVADGLKIGQVLYFPAEG	-0.0603
HMAQLPADMSKVKSADISEAQLQEFIQKATSSGYNMNQIEMEFAKRGMSENEVSLLRPRLRRLMAS	0.212
HMAQLSDDEQAIIDTITRRGDATMSELIASVNVSTPRLMSMLIDMEFRSLITALPGGRYQIRLIN	-0.464
HMAQLTPREREVLVLIAEGKSNKEIADQLNIGVRTIETHRERIMRRLNIHSVAGLTKYAIANGLVTL	0.0239
HMAQPIPSGADIRAAREAAGMTLRRFAEYIAGPDFSTWSRYETGKPIRVKNISPEVWQRVRKFIAQNKG	0.129

Reference: the domain aggregation screens of Martell et al. (2025)
